{"source": "the RNAGym collection of RNA variant scans (doi:10.1093/molbev/msab373)", "parents": {"B1": {"name": "Azoarcus group I ribozyme (parent)", "chain": "GUGCCUUGCGCCGGGAAACCACGCAAGGGAUGGUGUCAAAUUCGGCGAAACCUAAGCGCCCGCCCGGGCGUAUGGCAACGCCGAGCCAAGCUUCGGCGCCUGCGCCGAUGAAGGUGUAGAGACUAGACGGCACCCACCUAAGGCAAACGCUAUGGUGAAGGCAUAGUCCAGGGAGUGGCGAAAGUCACACAAACCGG"}}, "data": [{"variants_of": "B1", "assay": "reverse-splicing fitness (ratio to wild type); higher = more active; in vitro selection; Mg2+ level not given", "in_short": "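An in vitro group I ribozyme library with randomized positions was T7-transcribed and gel-purified. In triplicate, 10 pmol RNA in EPPS pH 7.5 was reacted with 50 pmoles of a 30-nt RNA substrate for 1 h at 37 °C across several added MgCl2 levels (1–48 mM), then stopped with EDTA. Products were reverse transcribed from a substrate-complementary primer, PCR-amplified and sequenced (HiSeq 4000). Fitness is a variant's read proportion after selection over that before, normalised to wild type.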", "values": [{"variant": "A111G A120G A145U C150U C169A U176G", "reverse-splicing fitness": 0.00532}, {"variant": "A111G A120G A145U C150U C169A U176C", "reverse-splicing fitness": 0.0426}, {"variant": "A111G A120G A145U C150U C169A U176A", "reverse-splicing fitness": 0.0314}, {"variant": "A111G A120G A145C C150U C169A", "reverse-splicing fitness": 0.0431}, {"variant": "A111G A120G A145C C150U C169U", "reverse-splicing fitness": 0.0714}, {"variant": "A111G A120G A145C C150U C169G", "reverse-splicing fitness": 0.088}, {"variant": "A111G A120C A145U C150U C169U", "reverse-splicing fitness": 0.173}, {"variant": "A111G A120C A145U C150U C169A", "reverse-splicing fitness": 0.013}, {"variant": "A111G A120C A145U C150U C169G", "reverse-splicing fitness": 0.0111}, {"variant": "A111G A120G A145U C150U C169G", "reverse-splicing fitness": 0.206}, {"variant": "A111G A120G A145U C150U C169A", "reverse-splicing fitness": 0.114}, {"variant": "A111G A120G A145U C150U C169U", "reverse-splicing fitness": 0.157}, {"variant": "A111G A120G A145U C169A U176G", "reverse-splicing fitness": 0.00646}, {"variant": "A111G A120G A145U C169A U176A", "reverse-splicing fitness": 0.0397}, {"variant": "A111G A120G A145U C169A U176C", "reverse-splicing fitness": 0.0642}, {"variant": "A111G A120G A145U C150A C169U U176C", "reverse-splicing fitness": 0.0198}, {"variant": "A111G A120G A145U C150A C169U U176A", "reverse-splicing fitness": 0.0273}, {"variant": "A111G A120G A145U C150A C169U U176G", "reverse-splicing fitness": 0.00518}, {"variant": "A111G A120G C150A C169U U176A", "reverse-splicing fitness": 0.0272}, {"variant": "A111G A120G C150A C169U U176G", "reverse-splicing fitness": 0.00819}, {"variant": "A111G A120G C150A C169U U176C", "reverse-splicing fitness": 0.0286}, {"variant": "A111G A120G A145G C150A C169U U176C", "reverse-splicing fitness": 0.0305}, {"variant": "A111G A120G A145G C150A C169U U176A", "reverse-splicing fitness": 0.0309}, {"variant": "A111G A120G A145G C150A C169U U176G", "reverse-splicing fitness": 0.00605}, {"variant": "A111G A120G A145C C150U C169A U176A", "reverse-splicing fitness": 0.0171}, {"variant": "A111G A120G A145C C150U C169A U176G", "reverse-splicing fitness": 0.00411}, {"variant": "A111G A120G A145C C150U C169A U176C", "reverse-splicing fitness": 0.0168}, {"variant": "A111G A120G A145C C150A C169A", "reverse-splicing fitness": 0.0124}, {"variant": "A111G A120G A145C C150A C169U", "reverse-splicing fitness": 0.0192}, {"variant": "A111G A120G A145C C150A C169G", "reverse-splicing fitness": 0.0196}, {"variant": "A111G A120G A145G C169A", "reverse-splicing fitness": 0.188}, {"variant": "A111G A120G A145G C169U", "reverse-splicing fitness": 0.252}, {"variant": "A111G A120G A145G C169G", "reverse-splicing fitness": 0.329}, {"variant": "A111G A120C A145U C150G C169A U176A", "reverse-splicing fitness": 0.00723}, {"variant": "A111G A120C A145U C150G C169A U176G", "reverse-splicing fitness": 0.00414}, {"variant": "A111G A120C A145U C150G C169A U176C", "reverse-splicing fitness": 0.00745}, {"variant": "A111G A120G A145C C150U U176G", "reverse-splicing fitness": 0.00705}, {"variant": "A111G A120G A145C C150U U176A", "reverse-splicing fitness": 0.0317}, {"variant": "A111G A120G A145C C150U U176C", "reverse-splicing fitness": 0.038}, {"variant": "A111G A120C C150A C169G U176G", "reverse-splicing fitness": 0.00513}, {"variant": "A111G A120C C150A C169G U176A", "reverse-splicing fitness": 0.0214}, {"variant": "A111G A120C C150A C169G U176C", "reverse-splicing fitness": 0.0196}, {"variant": "A111G A120G A145C C150A U176G", "reverse-splicing fitness": 0.00495}, {"variant": "A111G A120G A145C C150A U176C", "reverse-splicing fitness": 0.0131}, {"variant": "A111G A120G A145C C150A U176A", "reverse-splicing fitness": 0.0131}, {"variant": "A111G A120C A145U C150G U176C", "reverse-splicing fitness": 0.0545}, {"variant": "A111G A120C A145U C150G U176A", "reverse-splicing fitness": 0.0189}, {"variant": "A111G A120C A145U C150G U176G", "reverse-splicing fitness": 0.00444}, {"variant": "A111G A120C A145U C150A C169U U176G", "reverse-splicing fitness": 0.00505}, {"variant": "A111G A120C A145U C150A C169U U176C", "reverse-splicing fitness": 0.0177}, {"variant": "A111G A120C A145U C150A C169U U176A", "reverse-splicing fitness": 0.0204}, {"variant": "A111G A120C C150G C169G", "reverse-splicing fitness": 0.0068}, {"variant": "A111G A120C C150G C169U", "reverse-splicing fitness": 0.0262}, {"variant": "A111G A120C C150G C169A", "reverse-splicing fitness": 0.00889}, {"variant": "A111G A120G A145G C150U C169A U176G", "reverse-splicing fitness": 0.00612}, {"variant": "A111G A120G A145G C150U C169A U176A", "reverse-splicing fitness": 0.0303}, {"variant": "A111G A120G A145G C150U C169A U176C", "reverse-splicing fitness": 0.0553}, {"variant": "A111G A120G A145C C150U C169U U176G", "reverse-splicing fitness": 0.00645}, {"variant": "A111G A120G A145C C150U C169U U176A", "reverse-splicing fitness": 0.0353}, {"variant": "A111G A120G A145C C150U C169U U176C", "reverse-splicing fitness": 0.0306}, {"variant": "A111G A120G A145U C150G C169A U176C", "reverse-splicing fitness": 0.0123}, {"variant": "A111G A120G A145U C150G C169A U176G", "reverse-splicing fitness": 0.00435}, {"variant": "A111G A120G A145U C150G C169A U176A", "reverse-splicing fitness": 0.0101}, {"variant": "A111G A120C C150U C169G", "reverse-splicing fitness": 0.0131}, {"variant": "A111G A120C C150U C169A", "reverse-splicing fitness": 0.012}, {"variant": "A111G A120C C150U C169U", "reverse-splicing fitness": 0.161}, {"variant": "A111G A120C U176A", "reverse-splicing fitness": 0.47}, {"variant": "A111G A120C U176G", "reverse-splicing fitness": 0.125}, {"variant": "A111G A120C U176C", "reverse-splicing fitness": 0.522}, {"variant": "A111G A120G C150G", "reverse-splicing fitness": 0.0248}, {"variant": "A111G A120G C150A", "reverse-splicing fitness": 0.0324}, {"variant": "A111G A120C C150G C169G U176A", "reverse-splicing fitness": 0.00631}, {"variant": "A111G A120C C150G C169G U176C", "reverse-splicing fitness": 0.00358}, {"variant": "A111G A120C C150G C169G U176G", "reverse-splicing fitness": 0.00385}, {"variant": "A111G A120G A145C C150U C169G U176G", "reverse-splicing fitness": 0.00498}, {"variant": "A111G A120G A145C C150U C169G U176A", "reverse-splicing fitness": 0.0412}, {"variant": "A111G A120G A145C C150U C169G U176C", "reverse-splicing fitness": 0.036}, {"variant": "A111G A120C A145U C150U C169U U176G", "reverse-splicing fitness": 0.00606}, {"variant": "A111G A120C A145U C150U C169U U176A", "reverse-splicing fitness": 0.0423}, {"variant": "A111G A120C A145U C150U C169U U176C", "reverse-splicing fitness": 0.051}, {"variant": "A111G A120C A145U C150U U176A", "reverse-splicing fitness": 0.365}, {"variant": "A111G A120C A145U C150U U176G", "reverse-splicing fitness": 0.0965}, {"variant": "A111G A120C A145U C150U U176C", "reverse-splicing fitness": 0.357}, {"variant": "A111G A120C A145U C150U C169G U176C", "reverse-splicing fitness": 0.0106}]}]}
